Targets include p107^ΔPL E560H (human) (UniProt P28749); p107^ΔPL H797R (human) (UniProt P28749); p107^ΔPL V490K (human) (UniProt P28749).
Holding throughout (test): ITC
(In general: ITC needs no label: the signal is the heat of the interaction.)

The target in experiment [1] is p107^ΔPL containing six mutations to the Rb sequence (p107^6x) (human) (UniProt P28749).
Experiment [2] has as its target phosphorylated p107^ΔPL982 (human) (UniProt P28749).
For experiment [3], the target named is Rb pocket domain lacking its large internal loop (Rb^ΔPL: residues 380–787 with 581–642 deleted) (human) (UniProt P06400).

For “E2F2 transactivation domain (E2F2^TD) (domain or fragment)”, in experiment [1], the fold higher affinity than p107^ΔPL came out at 24 fold. Further, the fold increase in affinity over p107^ΔPL with p107^ΔPL E560H (human), with p107^ΔPL H797R (human) and with p107^ΔPL V490K (human) was 3 fold throughout.
On to “E2F4 transactivation domain (E2F4^TD) (domain or fragment)”, for which the fold reduction in affinity against unphosphorylated p107^ΔPL982 in experiment [2] is 3 fold.
As to E2F4^TD N395G (domain or fragment), the fold increase in affinity over wild-type E2F4^TD in experiment [3] was found to be 5 fold.
“E2F1 transactivation domain (E2F1^TD) (domain or fragment)”: the fold higher affinity than p107^ΔPL in experiment [1] amounted to 3 fold.
